Data taken from patent US10800847.
Each block holds one substance with its values, some of them ahead of it.

Columns and labels:
[1] = target: HLA-A*2902 (A29) single antigen on beads (human); assay: Luminex iBeads (#6), IVIg 1:8
[2] = target: HLA-A*3002 (A30) single antigen on beads (human); assay: Luminex iBeads (#6), IVIg 1:8
[3] = target: HLA-A*3201 (A32) single antigen on beads (human); assay: Luminex iBeads (#6), IVIg 1:8
[4] = target: HLA-A*3402 (A34) single antigen on beads (human); assay: Luminex iBeads (#6), IVIg 1:8
[5] = target: HLA-A*3601 (A36) single antigen on beads (human); assay: Luminex iBeads (#6), IVIg 1:8
[6] = target: HLA-A*4301 (A43) single antigen on beads (human); assay: Luminex iBeads (#6), IVIg 1:8
[7] = target: HLA-A*6601 (A66) single antigen on beads (human); assay: Luminex iBeads (#6), IVIg 1:8
[8] = target: HLA-A*6602 (A66) single antigen on beads (human); assay: Luminex iBeads (#6), IVIg 1:8
[9] = target: Albumin (negative control beads) (human or bovine); assay: Luminex, regular beads (#7), 1:8
HLA-B*8201 (B82) (human) [10] = assay: Luminex, regular beads (#7), 1:8
[11] = target: HLA-Cw*0102 (Cw1) (human); assay: Luminex, regular beads (#7), 1:8
[12] = target: HLA-Cw*0202 (Cw2) (human); assay: Luminex, regular beads (#7), 1:8
[13] = target: HLA-Cw*0302 (Cw10) (human); assay: Luminex, regular beads (#7), 1:8
[14] = target: HLA-Cw*0303 (Cw9) (human); assay: Luminex, regular beads (#7), 1:8
[15] = target: HLA-Cw*0304 (Cw10) (human); assay: Luminex, regular beads (#7), 1:8
[16] = target: HLA-Cw*0401 (Cw4) (human); assay: Luminex, regular beads (#7), 1:8
[17] = target: HLA-Cw*0501 (Cw5) (human); assay: Luminex, regular beads (#7), 1:8
[18] = target: HLA-Cw*0602 (Cw6) (human); assay: Luminex, regular beads (#7), 1:8
[19] = target: HLA-Cw*0702 (Cw7) (human); assay: Luminex, regular beads (#7), 1:8
[20] = target: HLA-Cw*1203 (Cw12) (human); assay: Luminex, regular beads (#7), 1:8
[21] = target: HLA-Cw*1402 (Cw14) (human); assay: Luminex, regular beads (#7), 1:8
[22] = target: HLA-Cw*1502 (Cw15) (human); assay: Luminex, regular beads (#7), 1:8
[23] = target: HLA-Cw*1601 (Cw16) (human); assay: Luminex, regular beads (#7), 1:8
[24] = target: HLA-Cw*1701 (Cw17) (human); assay: Luminex, regular beads (#7), 1:8
[25] = target: HLA-Cw*1802 (Cw18) (human); assay: Luminex, regular beads (#7), 1:8
[26] = target: Albumin (negative control beads) (human or bovine); assay: Luminex, iBead vs regular bead MFI, 1:8
HLA-B*8201 (B82) (human) [27] = assay: Luminex, iBead vs regular bead MFI, 1:8
[28] = target: HLA-Cw*0102 (Cw1) (human); assay: Luminex, iBead vs regular bead MFI, 1:8
[29] = target: HLA-Cw*0202 (Cw2) (human); assay: Luminex, iBead vs regular bead MFI, 1:8
[30] = target: HLA-Cw*0302 (Cw10) (human); assay: Luminex, iBead vs regular bead MFI, 1:8
[31] = target: HLA-Cw*0303 (Cw9) (human); assay: Luminex, iBead vs regular bead MFI, 1:8
[32] = target: HLA-Cw*0304 (Cw10) (human); assay: Luminex, iBead vs regular bead MFI, 1:8
[33] = target: HLA-Cw*0401 (Cw4) (human); assay: Luminex, iBead vs regular bead MFI, 1:8
[34] = target: HLA-Cw*0501 (Cw5) (human); assay: Luminex, iBead vs regular bead MFI, 1:8
[35] = target: HLA-Cw*0602 (Cw6) (human); assay: Luminex, iBead vs regular bead MFI, 1:8
[36] = target: HLA-Cw*0702 (Cw7) (human); assay: Luminex, iBead vs regular bead MFI, 1:8
[37] = target: HLA-Cw*0801 (Cw8) (human); assay: Luminex, iBead vs regular bead MFI, 1:8
[38] = target: HLA-Cw*1203 (Cw12) (human); assay: Luminex, iBead vs regular bead MFI, 1:8
[39] = target: HLA-Cw*1502 (Cw15) (human); assay: Luminex, iBead vs regular bead MFI, 1:8
[40] = target: HLA-Cw*1601 (Cw16) (human); assay: Luminex, iBead vs regular bead MFI, 1:8
[41] = target: HLA-Cw*1701 (Cw17) (human); assay: Luminex, iBead vs regular bead MFI, 1:8
[42] = target: HLA-Cw*1802 (Cw18) (human); assay: Luminex, iBead vs regular bead MFI, 1:8
[43] = target: HLA-A*6802 (A68) single antigen on Luminex beads (human); assay: Luminex single antigen bead assay, iBeads (#6), IVIg 1:8
[44] = target: HLA-A*6901 (A69) single antigen on Luminex beads (human); assay: as above
[45] = target: HLA-A*8001 (A80) single antigen on Luminex beads (human); assay: as above
[46] = target: HLA-A*3301 (A33) single antigen on beads (human); assay: Luminex iBeads (#6), IVIg 1:8
[47] = target: HLA-A*6801 (A68) single antigen on beads (human); assay: Luminex iBeads (#6), IVIg 1:8
[48] = target: HLA-Cw*1402 (Cw14) (human); assay: Luminex, iBead vs regular bead MFI, 1:8

MFI [1]: 2890 MFI | MFI [2]: 1410 MFI | MFI [3]: 915 MFI | MFI [4]: 0 MFI | MFI [5]: 1550 MFI | MFI [6]: 2720 MFI | MFI [7]: 2330 MFI | MFI [8]: 1860 MFI | MFI [9]: 10300 MFI | MFI (HLA-B*8201 (B82) (human) [10]): 4780 MFI | MFI [11]: 4310 MFI | MFI [12]: 6810 MFI | MFI [13]: 4130 MFI | MFI [14]: 3020 MFI | MFI [15]: 4430 MFI | MFI [16]: 6480 MFI | MFI [17]: 5980 MFI | MFI [18]: 10600 MFI | MFI [19]: 10500 MFI | MFI [20]: 5610 MFI | MFI [21]: 6160 MFI | MFI [22]: 3690 MFI | MFI [23]: 6850 MFI | MFI [24]: 5640 MFI | MFI [25]: 7160 MFI | Difference % [26]: -24% | Difference % (HLA-B*8201 (B82) (human) [27]): -104% | Difference % [28]: -75% | Difference % [29]: -59% | Difference % [30]: -57% | Difference % [31]: -45% | Difference % [32]: -59% | Difference % [33]: -71% | Difference % [34]: -66% | Difference % [35]: -80% | Difference % [36]: -77% | Difference % [37]: -90% | Difference % [38]: -65% | Difference % [39]: -68% | Difference % [40]: -77% | Difference % [41]: -42% | Difference % [42]: -79% | MFI [43]: 1950 MFI | MFI [44]: 2880 MFI | MFI [45]: 1190 MFI
Substance: IVIg Gamunex-C Lot NKLK1 (antibody)

MFI [1]: 6010 MFI | MFI [3]: 3760 MFI | MFI [46]: 4460 MFI | MFI [5]: 3950 MFI | MFI [47]: 3150 MFI | MFI [9]: 10800 MFI | MFI (HLA-B*8201 (B82) (human) [10]): 6060 MFI | MFI [14]: 4260 MFI | MFI [16]: 7530 MFI | MFI [17]: 7550 MFI | MFI [18]: 12000 MFI | MFI [19]: 11800 MFI | MFI [20]: 7100 MFI | MFI [21]: 7240 MFI | MFI [23]: 8460 MFI | MFI [24]: 6560 MFI | MFI [25]: 8430 MFI | Difference % (HLA-B*8201 (B82) (human) [27]): -55% | Difference % [28]: -2% | Difference % [29]: -32% | Difference % [30]: -2% | Difference % [31]: 1% | Difference % [32]: -28% | Difference % [33]: -51% | Difference % [34]: -47% | Difference % [35]: -65% | Difference % [36]: -54% | Difference % [37]: -40% | Difference % [38]: -32% | Difference % [48]: -45% | Difference % [40]: -52% | Difference % [41]: -6% | Difference % [42]: -58% | MFI [43]: 4660 MFI | MFI [44]: 6240 MFI | MFI [45]: 3970 MFI
Substance: IVIg Gamunex-C Lot NKLG1 (antibody)

MFI [1]: 2270 MFI | MFI [2]: 369 MFI | MFI [3]: 518 MFI | MFI [46]: 1360 MFI | MFI [4]: 0 MFI | MFI [5]: 572 MFI | MFI [6]: 1690 MFI | MFI [7]: 1020 MFI | MFI [8]: 684 MFI | MFI [47]: 0 MFI | MFI [9]: 2340 MFI | MFI (HLA-B*8201 (B82) (human) [10]): 5030 MFI | MFI [11]: 7720 MFI | MFI [12]: 9380 MFI | MFI [13]: 5610 MFI | MFI [14]: 3350 MFI | MFI [15]: 5550 MFI | MFI [16]: 9880 MFI | MFI [17]: 8770 MFI | MFI [19]: 15300 MFI | MFI [20]: 8660 MFI | MFI [21]: 8430 MFI | MFI [22]: 4820 MFI | MFI [23]: 9260 MFI | MFI [24]: 8980 MFI | MFI [25]: 10600 MFI | Difference % [26]: -29% | Difference % (HLA-B*8201 (B82) (human) [27]): -90% | Difference % [28]: -77% | Difference % [29]: -80% | Difference % [30]: -79% | Difference % [31]: -64% | Difference % [32]: -74% | Difference % [33]: -80% | Difference % [34]: -83% | Difference % [35]: -96% | Difference % [36]: -89% | Difference % [37]: -85% | Difference % [48]: -88% | Difference % [39]: -95% | Difference % [40]: -88% | Difference % [41]: -70% | Difference % [42]: -92% | MFI [43]: 489 MFI | MFI [44]: 814 MFI | MFI [45]: 845 MFI
Substance: IVIg Octagam (Octapharma, Lachen, Switzerland) (antibody)

MFI [1]: 4430 MFI | MFI [2]: 929 MFI | MFI [3]: 1820 MFI | MFI [46]: 1880 MFI | MFI [4]: 1210 MFI | MFI [5]: 1380 MFI | MFI [6]: 4180 MFI | MFI [7]: 2610 MFI | MFI [8]: 4320 MFI | MFI [47]: 634 MFI | MFI [9]: 3790 MFI | MFI (HLA-B*8201 (B82) (human) [10]): 3860 MFI | MFI [11]: 4540 MFI | MFI [12]: 7180 MFI | MFI [13]: 4010 MFI | MFI [14]: 2860 MFI | MFI [15]: 3710 MFI | MFI [16]: 6290 MFI | MFI [17]: 6970 MFI | MFI [18]: 9170 MFI | MFI [19]: 7620 MFI | MFI [21]: 4270 MFI | MFI [22]: 6170 MFI | MFI [24]: 7860 MFI | MFI [25]: 7980 MFI | Difference % [26]: 33% | Difference % (HLA-B*8201 (B82) (human) [27]): 10% | Difference % [28]: -38% | Difference % [29]: 13% | Difference % [31]: -9% | Difference % [32]: -26% | Difference % [33]: -20% | Difference % [34]: -9% | Difference % [36]: -54% | Difference % [37]: -32% | Difference % [38]: -54% | Difference % [48]: -57% | Difference % [39]: 24% | Difference % [40]: -45% | Difference % [41]: 22% | Difference % [42]: -2%
Substance: IVIg GamaSTAN S/D (Talecris Biotherapeutics, USA) (antibody)
